# Experimental data: US20150087814A1 (UNIVERSITY OF MARYLAND BALTIMORE, published 2015)
# T1: FcγRIIb (UniProt P31994 46-217, limits assumed)
# T1 construct: also called FcγIIb receptor
# T1 sequence (looked up): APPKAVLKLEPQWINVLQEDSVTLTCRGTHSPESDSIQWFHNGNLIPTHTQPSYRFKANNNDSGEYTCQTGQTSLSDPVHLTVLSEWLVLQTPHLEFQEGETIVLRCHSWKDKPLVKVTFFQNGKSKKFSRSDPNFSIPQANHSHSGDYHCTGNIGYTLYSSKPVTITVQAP
# B1: commercial rituximab (rituxan, Genentech Inc.) (antibody)
# chain 1: not shown
# chain 2: QIVLSQSPAILSASPGEKVTMTCRASSSVSYIHWFQQKPGSSPKPWIYATNLASGVPVRFSGSGSGTSYSLTISRVEAEDAATYYCQQWTSNPPTFGGGTKLEIKRTVAAPSVFIFPPSDEQLKSGTASVVCLLNNFYPREAKVQWKVDNALQSGNSQESVTEQDSKDSTYSLSSTLTLSKADYEKHKVYACEVTHQGLSSPVTKSFNRGEC
# Columns and labels:
# Experiment in all cases: SPR (Biacore T100), antibody captured on protein A chip, receptor injected as analyte
# [1] = biological target: T1, FcγRIIb
# [2] = biological target: T2, FcγRIIIa-F158 (UniProt P08637 17-208, limits assumed)
# T2 construct: also called FcγRIIIa-F158 allele
# [3] = biological target: T3, FcγRIIIa-V158 (UniProt P08637 17-208, limits assumed)
# T3 construct: It names the V158 allele but states no substitution against an entry; also called FcγRIIIa-V158 allele
# T3 sequence (P08637 17-208 F176V limits assumed): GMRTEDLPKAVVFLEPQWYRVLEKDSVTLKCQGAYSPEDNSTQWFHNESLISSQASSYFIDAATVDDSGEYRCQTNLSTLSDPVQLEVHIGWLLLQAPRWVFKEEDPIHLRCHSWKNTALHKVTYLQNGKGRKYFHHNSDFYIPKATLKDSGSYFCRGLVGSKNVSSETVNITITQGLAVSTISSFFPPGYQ
# T2 sequence (P08637 17-208 limits assumed): as the sequence (P08637 17-208 F176V limits assumed) above, with V160F counted along it
binder,measurement,setting,value
B1,Kd,[1],2000 nM
same,Kd,[2],1040 nM
same,Kd,[3],252 nM
